From PMC8804602 (FEBS Open Bio, 2022)

Target: the molecule itself
Assay: SEC-MALS; 25 °C, Superdex 200 Increase 10/300 GL, ~2 mg/mL, 100 μL injected, 25 mM Tris-HCl pH 8.0, 150 mM NaCl

B1: periplasmic part of MreC (residues 36-367) from Escherichia coli (domain or fragment, E. coli, UniProt P16926 36-367, looked up)
chain: SQIRTYMDTAVSPFYFVSNAPRELLDGVSQTLASRDQLELENRALRQELLLKNSELLMLGQYKQENARLRELLGSPLRQDEQKMVTQVISTVNDPYSDQVVIDKGSVNGVYEGQPVISDKGVVGQVVAVAKLTSRVLLICDATHALPIQVLRNDIRVIAAGNGCTDDLQLEHLPANTDIRVGDVLVTSGLGGRFPEGYPVAVVSSVKLDTQRAYTVIQARPTAGLQRLRYLLLLWGADRNGANPMTPEEVHRVANERLMQMMPQVLPSPDAMGPKLPEPATGIAQPTPQQPATGNAATAPAAPTQPAANRSPQRATPPQSGAQPPARAPGGQ
notes: Cell shape-determining protein MreC, E. coli BL21(DE3) strain, residues 36-367, lacks the N-terminal transmembrane region; holds the coiled coil, two six-stranded beta-barrels and the pro-rich region; the cDNA came from strain BL21(DE3); pET21b usually adds a C-terminal His6 (surmised); About 37 kDa per chain as printed; also called truncated MreC; major periplasmic domain of MreC; source: E. …
B1 was tested, and the “stoichiometry N” value was 2.
